The record followed here is article PMC3735172.

Common to all, as to test: EMSA
Data set [1] has as its target T1, MtAlba(I39) (Methanothermobacter thermautotrophicus …, UniProt O27527 1-91).
T1 sequence: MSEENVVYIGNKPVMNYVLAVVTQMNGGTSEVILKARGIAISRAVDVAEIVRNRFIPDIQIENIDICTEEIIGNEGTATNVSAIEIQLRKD

Another data set deals with T2, MtAlba(R39) (Methanothermobacter thermautotrophicus, UniProt O27527 1-91, I39R).
T2 sequence: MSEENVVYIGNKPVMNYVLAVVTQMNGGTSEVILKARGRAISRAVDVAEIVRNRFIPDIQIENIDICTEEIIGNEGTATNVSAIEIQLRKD

Data set [2] addresses T1, MtAlba(I39). This is another data set of the same source.

Read-outs that look alike come from different tables or passages of the source.

B1: 36 bp dsDNA (dsDNA)
DNA 1: ATCAATTAAAGCGTTCTACGGCGTTTTAGATCTGAT
DNA 2: ATCAGATCTAAAACGCCGTAGAACGCTTTAATTGAT
Turning to B1, the binding result with MtAlba(I39) [1] is on record as “no binding”. In the data set with MtAlba(R39), the equilibrium dissociation constant (Kd) is about 200 nM.

B2: tRNAPro (structured_RNA)
RNA: GGGCGAGUAGCGCAGCUUGGUAGCGCAACUGGUUUGGGACCAGUGGGUCGGAGGUUCGAAUCCUCUCUCGUCCACCA
In the case of B2, the binding result in the data set with MtAlba(I39) [2] is reported as “no binding”. The same molecule came in with a Kd with MtAlba(R39) of about 1000 nM.
Regarding UUAAAGCCCGUGGAAGAGCC (ssRNA) [ssRNA], the binding result in the data set with MtAlba(I39) [2] was “no binding”. In addition, the dissociation constant (Kd) with MtAlba(R39) was about 1500 nM.
